Assay results taken from article PMC3006384, “Phosphorylation of Mouse Immunity-Related GTPase (IRG) Resistance Proteins Is an Evasion Strategy for Virulent Toxoplasma gondii” (PLoS Biology, 2010).

B1: recombinant wt Irga6 (bacterially expressed, from pGEX-4T-2-Irga6) [mouse] / itself (parent)
chain: MGQLFSSPKSDENNDLPSSFTGYFKKFNTGRKIISQEILNLIELRMRKGNIQLTNSAISDALKEIDSSVLNVAVTGETGSGKSSFINTLRGIGNEEEGAAKTGVVEVTMERHPYKHPNIPNVVFWDLPGIGSTNFPPNTYLEKMKFYEYDFFIIISATRFKKNDIDIAKAISMMKKEFYFVRTKVDSDITNEADGKPQTFDKEKVLQDIRLNCVNTFRENGIAEPPIFLLSNKNVCHYDFPVLMDKLISDLPIYKRHNFMVSLPNITDSVIEKKRQFLKQRIWLEGFAADLVNIIPSLTFLLDSDLETLKKSMKFYRTVFGVDETSLQRLARDWEIEVDQVEAMIKSPAVFKPTDEETIQERLSRYIQEFCLANGYLLPKNSFLKEIFYLKYYFLDMVTEDAKTLLKEICLRN

Variants of: B1
Experiment: light scattering (GTP-dependent oligomerisation)
Conditions: with itself, value read at the last time point, 60 min, parent: 0.61, read off a plot

Variant | response
chain 1 T108D | 0.22 a.u.
